B1: LINE1-full (parent)
chain: UACGUAGGUGGUUUUCCCCUGAUAGUGCUAAGGGGGCCUGGAAGUUUGGACUGGGCAGAGCUCAACACAGCGUGGCAAAGUGGCUGUGGCUAGACUGCCUCUCUGGAUUCCUCGUCACUCAGCAGGGCAUCUCUGAGAGAAAUGCC

Variants of: B1
Test: self-cleavage, relative activity (ratio to wild type); higher = more cleavage; in vitro, sequencing; the parent is a self-cleaving ribozyme

Variant	self-cleavage
G60A A94C	0.01
U29C A77U	1.63
A24U U112C	1.28
A69G G114A	0.99
A94U U109C	0.22
U45A C99U	0.59
A6U A142C	0.28
G11A U29A	1.34
A2U U52C	0.67
G74A U85C	0.06
G72A A142G	1.27
U29C U102C	1.1
A69C G93A	0.01
U62C C101U	0.07
G32A U119A	1.1
U115C A142G	2.05
C18U A129U	0.56
G33A A59U	0.65
U9A U87G	0.23
A24G A77G	1.41
G86A U112C	0.08
U12C C18G	2.1
U15C U62A	0.07
G89A A140U	0.02

Variant	self-cleavage
A65G A117G	0.08
U1C G89U	0
A64G A140U	0.3
A42U U45C	1.4
A129C A136G	1.61
U102C U132C	1.75
U20C A140U	0.95
A43C A136U	1.64
U5A C61A	0.03
A6G A24U	1.21
U5C U62A	0
U15C A59G	0.1
A50U A129U	1.12
A24C A77G	2.76
C76U A107U	2.27
A22G A57G	0.67
U12C A92U	0.56
G41A A79U	1.28
G49A A79G	0.97
G72A A107G	1.36
G8A A140G	1.55
A67G U96A	0.06
A31C A142G	0.53
A121G C145A	1.6

Variant	self-cleavage
C51A U73G	0.69
A69G C118A	0.51
U45G C113A	0.98
C101A	1.38
U13C A59U	0.86
U39G U96C	0.11
C123A	1.19
U47C G93U	0.04
G27U C84A	0.1
A94U U102A	0.33
G55C U108C	0.18
U26A G82A	1.18
U12C G105A	1.54
C71A A117G	0.15
U9A U108C	0.9
U73C C101U	1.01
C17U	1.09
U45A U119A	1.44
U62A U119C	0.03
U52A	1.34
A140G C146U	1.63
A64C U119C	0.35
U47C C56U	0.42
A24G C123U	0.71

Variant	self-cleavage
U85C C99U	0.07
A79G A138U	0.85
G35U U81A	1.82
U115A U134A	0.95
G11A A79G	0.56
G33A A138U	1.19
A79U A94G	0.26
U14A U23C	1.44
A50G A79C	1.02
U13C G49A	0.88
G54U U143C	1.07
U134C A140G	1.58
U26G A117U	1.3
U13C U87G	0.21
C99U U112A	1.12
G86U A138G	0.09
U20G A64U	0.71
U9A A57U	0.19
G8A U81C	1.25
U23C A78G	1.25
U29C A117G	0.44
U12G U52A	1.22
A57U A69U	0
A57G C113U	0.29

Variant	self-cleavage
U39C C133U	1.31
U81C A142G	1.38
A31U U39G	0.93
U47C G53A	1.78
U15C A78U	2.44
U112C A136U	1.84
G55A A138G	0.51
U46C U108A	1.4
G144C C145U	0.99
A59U	0.8
C61U U102C	0.03
U20C A142G	1.36
U96C G126A	0.15
A22G G88A	0.14
U20A U87C	0.31
G27A U143C	1.38
A65G A69G	0
U12C G54A	0.62
G36U A79G	1.3
G53A U87C	0.18
U14C C110A	1.33
U47C C118A	0.46
A50G G122A	0.83
A50C C116U	1.34

Variant	self-cleavage
U9A A22U	0.89
U9C U134A	1.19
G106U U130C	1.29
C3U U39C	0.79
A42G C120U	0.67
G82A A124G	1.3
U29G U104A	1.6
G53U A78G	0.71
G80U U102A	1.34
U23A U102C	2.11
U9A U81C	1.1
A124G U132A	0.87
U112C A117C	1.38
U96G U104A	0.05
U46C A107G	1.06
G48C U91C	1.05
A42U A141U	0.81
G25C C116U	1.52
A79G G93U	0.06
A22G G27A	1
U73A G82U	1.65
G97A U109A	0.07
C18U U73A	1.78
U15C U119C	1.75

Variant	self-cleavage
A31G A69U	0.12
U134G A141G	1.44
A42G A64U	0.52
G35U A117U	1.04
C19A U102C	1.76
U26C A117G	1.51
A79G U132C	1.43
A69U U87C	0.06
U12G U91A	0.97
U85C U91A	0.14
U85A C99G	0.05
A30U G32A	0.89
C71U U73A	0.31
U52G U73A	1.74
G33C	1.17
G7U G54A	0.94
U47C G105A	1.45
A24G U104A	1.24
G105A A129C	2.69
A6U A59C	0.74
U13C G80A	1.48
U29C A65G	0.09
U91A U100A	0.56
U15C U130A	1

Variant	self-cleavage
U45C U85A	0.12
A59G A64G	0.06
G72A U100A	0.18
U134C C146U	1.65
U23C U29C	1.06
U81C A94C	0
G10A A121G	1.37
A69G C128A	0.14
G106A U143C	1.51
G83A U108C	0.56
C19U A67G	0
G75C U134A	0.49
U46C C76U	2.44
A22U A65U	0.18
A30G C120U	1.53
A65C U119A	0
A6U A43U	0.89
A77G U96G	0.16
A2G U47C	0.84
U1C U26C	0.64
G8A C131A	0.51
U39C G60A	0.02
G33U U39C	1.16
C18U A22U	0.9

Variant	self-cleavage
A30G A124G	0.91
A2G C19U	0.56
U85A U100C	0.21
A43U A142G	1.24
U26A U132A	1.34
A67G A124U	0.49
C71A G93U	0.03
A42U U100A	0.62
A57U A65G	0.07
G35A C131U	1.67
A57G U130A	1.27
A6U U81C	1.06
A43U U46A	1.24
G44A A59G	0.03
C128U	1.39
U15A U104C	1.06
A30C A141G	1.38
G53A A67G	0.38
U9C U104C	1.82
U109C G114U	1.33
U81C A136G	1.12
U14A A142G	0.85
C90U A124G	0.02
U9A G53A	1.53

Variant	self-cleavage
A24U A42G	1.54
G4A G127A	1.67
G127U U130C	1.77
G7A G75A	0.95
A117U A124C	1.77
U45C G54A	0.43
U12G A129C	1.1
A94G U104A	0.22
A77U C113A	0.92
A42G A121C	0.84
G10A C90U	0.06
A6U A67G	0.49
G32C A67G	0
U45A A57C	0.14
A65U A129U	0.18
U13C C128A	0.79
U13C C71A	0.24
U13G	0.93
C17U U104A	0.95
G54A A65U	0.1
A24G G25U	1.14
U100C A140G	1.79
A79G C98A	0.2
A78C U100C	2.41

Variant	self-cleavage
U47C A121C	1.05
U46C U115A	1.58
U9G A124C	0
A6G A94G	0.31
G34A A67C	0.03
A64U U87G	0.11
U62C G70A	0.01
U104C A124U	1.76
U14A U102A	0.99
G11A C51U	1.38
A50U A57G	0.08
C16A A22U	1.21
U15A U29C	2.9
C101U A136G	1.8
G70A U73A	0.09
G7C U13C	2.07
G10A U130G	0.93
C123U U130C	1.74
A57G U62A	0.05
A64C U81C	0.38
U39C U85C	0.18
A30G A50G	0.64
G55C A107U	0.08
A24U A138U	1.93

Variant	self-cleavage
U109C U130C	1.49
U115C A141U	1.27
A117G A121G	1.38
A31U U119C	1.62
A67C G82A	0.05
U9C U39C	1.14
G11A C95A	0.06
U26C A94G	0.39
A22G C37G	0.79
U15C A142G	1.41
U20C U52G	1.81
U14C A94C	0.09
U104G C113U	0.83
A64G A142G	0.25
C16U U100C	1.02
G48U A129G	1.23
A31G U132C	0.85
A94U A141G	0.37
U13A U81A	1.81
U20A A94G	0.18
A65G U112C	0.1
U5C A6G	0.65
C63U A124G	0.09
U45C A64U	0.29

Variant	self-cleavage
U112A A121C	1.92
U39G U81A	1.62
U85C G97U	0.02
G7A U115C	1.21
A138G	1.21
U102C G127A	1.7
G53A U108C	1.97
C3U A69G	0.53
U46C A64G	0.38
A6U G126U	1.16
U87A U130C	0.08
G48A A129G	1.54
U14C G36U	1.31
A64U U85A	0.06
U14A U26A	0.79
G7C A69G	0.79
A94G U115C	0.45
A24U A129G	0.75
G86A A129G	0.05
U12G A107U	0.98
G34U A136G	1.54
U1C G8A	0.49
U20G G135A	0.98
C17A A79U	0.87

Variant	self-cleavage
A31G C113U	1.03
A24G G126A	1.09
G70A U132G	0.19
A129C A140G	1.67
U39C U119G	1.36
G32U U143C	1.1
U62C C63U	0.07
A78G G86A	0.05
G34A A78U	1.75
U9A U26A	0.7
U9A U26C	1.24
U9A A24U	1.01
U39C A124G	0.53
U96G A142G	0.17
A67G A136G	0.67
U1A U20C	1.64
G53A U81C	0.67
U1A U115A	1.1
U62C C103U	0.03
A124U C145U	1.27
U96C U100C	0.38
U20G A141G	0.87

— the RNAGym collection of RNA variant scans (doi:10.7554/elife.90254)
